4 molecules from patent US20220249640A1 (Dana-Farber, published 2022) can be followed below.

One assay deals with human PD-1 on cells (human, UniProt Q15116 25-288). Nature of the assay: cell-based or functional assay.
Assay [1] addresses T1, PD-1 (soluble, biotinylated, on sensors or coated on plates) (human, UniProt Q15116 25-167, limits assumed, biotinylated (avi tag, Avidity's biotinylation kit) in the Octet assays).
T1 construct: also called biotinylated PD-1; soluble PD1
Nature of the assay: method not stated at the list; Octet curves of the mutants in FIG. 23. (In BLI a coated tip is dipped into the sample, and binding shifts an interference pattern.)

Assay [2] has as its target T1, PD-1 (soluble, biotinylated, on sensors …). Nature of the assay: Octet (BLI).
Assay [3] addresses T2, mouse PD-1 on transiently transfected Expi293 cells (mouse, UniProt Q02242 25-288).
T2 construct: whole, on cells; also called mPD-1
T2 sequence (looked up): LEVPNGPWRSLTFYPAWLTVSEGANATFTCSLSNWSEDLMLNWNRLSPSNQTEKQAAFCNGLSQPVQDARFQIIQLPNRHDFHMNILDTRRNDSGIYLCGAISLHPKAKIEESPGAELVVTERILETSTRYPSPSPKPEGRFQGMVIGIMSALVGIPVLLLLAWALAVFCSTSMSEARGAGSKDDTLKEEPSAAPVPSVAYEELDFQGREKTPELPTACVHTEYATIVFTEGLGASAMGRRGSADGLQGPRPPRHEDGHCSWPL
Nature of the assay: flow cytometry on transiently transfected Expi293 cells, anti human Fc-APC. The protocol:
3E5 transiently transfected Expi293 cells were suspended in 100 ul MACS buffer and added to each well. 50 ul of each antibody dilution were then mixed with the cells and the plate was incubated at 4° C. for 30 min. Following incubation, the plate was washed 2× with MACS buffer and then incubated with lul/well anti human Fc-APC (Biolegend #409306). The plate was incubated for 25 min at 4° C. and then washed 3× before running the samples.

T1 sequence (Q15116 25-167 limits assumed): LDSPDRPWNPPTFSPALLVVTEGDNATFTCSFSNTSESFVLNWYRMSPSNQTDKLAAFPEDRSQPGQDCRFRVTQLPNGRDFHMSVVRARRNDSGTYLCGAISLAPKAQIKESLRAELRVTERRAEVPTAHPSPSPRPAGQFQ
human PD-1 on cells, sequence (Q15116 25-288): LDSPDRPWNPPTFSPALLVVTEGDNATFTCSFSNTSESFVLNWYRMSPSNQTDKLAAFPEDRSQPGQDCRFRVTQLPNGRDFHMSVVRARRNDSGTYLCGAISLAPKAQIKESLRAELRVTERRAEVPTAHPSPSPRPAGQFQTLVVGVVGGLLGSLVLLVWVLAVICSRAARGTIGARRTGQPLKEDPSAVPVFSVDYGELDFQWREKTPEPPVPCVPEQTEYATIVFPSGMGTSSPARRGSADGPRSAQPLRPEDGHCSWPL

B1: P4-B3 minibody (scFv-Fc) (Fc fusion)
scFv: QVQLVQSGGGLVQPGRSLRLSCAASGFTFDDYAMHWVRQAPGKGLEWVSGISWNSGSIGYADSVKGRFTVSRDNAKNSLYLQMNSLRAEDTAVYYCASDYGDKYYYYGMDVWGKGTTVTVSSGGGGSGGGGSGGGGSQPGLTQPPSASGTPGQRVTISCSGSSSNIGSNTVNWYQQFPGKAPKLLIFNDNQRPSGVPDRFSASKSGTSASLAISGLQSEDEADYYCAAWDGGLNGRGVFGGGTKLTVL
notes: scFv-Fc (minibody) format; also called P4-B3 WT; P4-B3 wild type; not shown: Fc (hinge-CH2-CH3) of the minibody vector and its junction to the scFv
Take B1: the “EC50, Promega PD1-PDL1 bioassay (scFv-Fc format)” value in the assay with human PD-1 on cells was 1.75 fold of the EC50 of Nivo. Also, in assay [1], the Kd was roughly 1 nM.

B2: P4-B3 scFv (scFv)
scFv: B1 scFv
notes: This is a single chain Fv; VH and VL are joined by a G4S linker of which only the DNA is printed
For orientation: koff means a measure of how fast the partners let go of each other. The low end stands for a long-lived complex, the high end for a short-lived complex. Broadly, the kon is the second-order rate constant of association. High values mean faster complex formation, low ones slower complex formation. In assay [2], B2 gave a koff of 6.45e-05 s⁻¹ and a kon of 68500 M⁻¹ s⁻¹.

B3: P4-B3 IgG1 wild type monomer (antibody, V domains shown)
VH: QVQLVQSGGGLVQPGRSLRLSCAASGFTFDDYAMHWVRQAPGKGLEWVSGISWNSGSIGYADSVKGRFTVSRDNAKNSLYLQMNSLRAEDTAVYYCASDYGDKYYYYGMDVWGKGTTVTVSS
VL: QPGLTQPPSASGTPGQRVTISCSGSSSNIGSNTVNWYQQFPGKAPKLLIFNDNQRPSGVPDRFSASKSGTSASLAISGLQSEDEADYYCAAWDGGLNGRGVFGGGTKLTVLG
Take B3: the “fold induction (RLU stimulated/RLU unstimulated), Promega PD1-PDL1 bioassay” value with human PD-1 on cells was ~0.5 fold of the signal of pembro and nivo.

B4: P4-B3 (format not stated) (antibody, V domains shown)
VH: B3 VH
VL: QPGLTQPPSASGTPGQRVTISCSGSSSNIGSNTVNWYQQFPGKAPKLLIFNDNQRPSGVPDRFSASKSGTSASLAISGLQSEDEADYYCAAWDGGLNGRGVFGGGTKLTVL
notes: It was detected with anti human Fc-APC
On to B4, for which, in assay [3], the binding result was “binds”.
